Results: patent US20070098693A1, “Methods for enhancing engraftment of purified hematopoietic stem cells in allogenic recipients” (priority 2003, published 2007)
Values joined by “and” are separate entries in the source; they are usually repeats but may differ in a detail not shown here. Equal values may be shown once.

Experiments:
FC population in PB = assay: Flt3-ligand treatment of mice, subtypes in the mobilized FC population in PB; assay type: in vivo, B10.BR mice
Method: Flt3-ligand treatment of mice. Recombinant human Flt-3 Ligand (FL, kindly provided by Amgen, Seattle, Wash.) was diluted in sterile, filtered, endotoxin-free water at a concentration of 100 μg/ml. Donor B10.BR mice were subcutaneously injected with 10 μg of FL daily for 10 days. B10.BR control mice were injected with saline only. At the end of the treatment, peripheral blood was harvested and collected into heparinized tubes.
Phenotypic analysis of sorted FC. Sorted FC isolated from fresh BMC or FL-mobilized peripheral blood, with a purity ranging from 94 to 98%, were incubated with Fc receptor block (anti-CD16/CD32) before staining with different lineage specific markers, including anti-CD4, CD11c, B220, NK1.1, DX5, CD14, Gr1, and CD19. During reanalysis of sorted FC, less than 1% of contaminating T cells (TCRαβ FITC and TCRγδFITC) were detected, which therefore allowed the use of FITC-conjugated specific markers for further analysis. To validate the specificity of staining, various conjugates of the same antibody were used, including CD11c, CD4 and CD19 conjugated to FITC and APC, as well as B220 conjugated with PerCP, APC, or FITC (not shown). To analyze the subtypes of DC in the sorted FC population, sorted FC were blocked and stained with CD11b FITC, CD11c APC and B220 PerCP mAbs to determine the presence of myeloid pre-DC (CD11c^+/B220^−/CD11b^+), p-preDC (CD11c^dim/B220^+/CD11b^−), the common precursor population for DC (CD11c^+/B220^+/CD11b^+) or mature lymphoid DC (CD8α^+/CD11c^+/CD11b^−/B220^−). The cells were washed twice in CSM, and analyzed on a FACS Calibur using Cell Quest Software (Becton Dickinson, Mountainview, Calif.).

CD8^+/TCR^− FC [1] = assay: Activation marker expression on sorted FC after 18 h culture (FACS); assay type: cell-based, mice; details: FC from 10 day FL-cultured BMC, overnight culture, medium
Description: mAbs and Flow cytometry. The following mAbs (all from BD Biosciences Pharmingen, San Diego, Calif., except those labeled with APC-cy-7 from eBioscience, San Diego, Calif.) were used. To sort CD8^+/TCR^− FC: anti-CD8α (53-6.7) PE-labeled, anti-TCR β chain (H57-597) and anti-TCR γδ chain (GL3) FITC-labeled. To sort B220^+/CD11c^dim/CD11b^− p-preDC: anti-CD11b (M1/70) APC-labeled, anti-CD45R/B220 (RA3-6B2) APC-Cy7-labeled, anti-CD11c (HL3) PE-labeled, and anti-TCR β chain (H57-597), anti-TCR γδ chain (GL3), anti-CD14 (rmC5-3), anti-CD19 (1D3), anti-Pan-NK cells (DX5), and anti-NK1.1 (PK136), all FITC-labeled. To sort HSC: anti-TCR β chain (H57-597), anti-TCR γδ chain (GL3), anti-Ly-6G (Gr-1), anti-CD11b, Mac1 (M1/70), anti-CD8α (53-6.7) and anti-CD45R/B220 (RA3-6B2), all FITC-labeled, anti-Ly-6A/E (Sca-1) (E13-161.7) PE-labeled and anti-c-Kit (CD117) (2B8) APC-labeled. To restain the sorted FC population: purified anti-CD16/CD32 (FcγIII/II receptors) (2.4G2), anti-CD11c (HL3), anti-CD4 (RM4-5) and anti-CD19 (1D3) all APC-labeled, anti-CD45R/B220 (RA3-6B2) PerCP-labeled, and anti-Pan-NK cells (DX5), anti-NK1.1 (PK136), anti-CD14 (rmC5-3), and anti-Ly-6G (Gr-1) FITC-labeled. To analyze the activation state: anti-CD80 (B7-1) ([…]), anti-CD86 (B7-2) ([…]), and anti-I-A^b (Aβ^b) (AF6-120.1) FITC-labeled. For PBL typing and multilineage chimerism: anti-H-2 K^b (AF6-88.5) PE or FITC-labeled, anti-H-2K^k (36-7-5) PE or FITC-labeled, anti-TCR β chain (H57-597), anti-NK1.1 (PK136), anti-Ly-6G (Gr-1), anti-CD11b, Mac1 (M1/70) and anti-CD45R/B220 (RA3-6B2) all FITC-labeled. Detection of dead cells after cell culture was determined by using a 7-Amino-actinomycin D (7-AAD) (Molecular Probes, Eugene, Oreg.) followed by FACS analysis.
(§1) CpG oligodeoxynucleotides (ODN) stimulation. Sorted p-preDC or FC were cultured for 18 hours at 10^5 cells/200 μL in 96 well round-bottom culture plates in culture medium in the presence or absence of Toll-like receptor (TLR)-9 ligand, CPG-ODN 1668 (TCCATGACGTTCCGATGCT) (SEQ ID NO. 1) (GibcoBRL Custom Primers) at 1 μM, TLR-4 ligand, LPS from Escherichia coli (Sigma, MO, USA) at 10 μg/ml, as previously described^30. CpG or LPS-treated or untreated cells were subsequently assayed for: 1) the expression of DC activation/maturation cell surface markers by FACS, 2) their survival rate by 7AAD staining, or 3) morphological appearance by Wright Giemsa staining on cytospins. The supernatant of these cultures were collected for analysis of the production of different cytokines by ELISA.

CD8^+/TCR^− FC [2] = assay: CpG ODN / LPS stimulation of sorted FC, cytokine production by ELISA / multiplex; assay type: cell-based, mice; details: FC from 10 day FL-cultured BM, overnight culture, medium
Method: as §1
Cytokine production by ELISA. Briefly, the cell-free supernatants of 12H, 18H, or 24H cultured cells (FC or p-preDC,) with or without CpG ODN or LPS were collected and kept frozen at −80° C. The amount of cytokine produced was determined by 1) ELISA kits for mouse IFN-α (R&D system) and mouse TNF-α (Biosource International), and 2). Multiplex for MIP 1αCCL3), GM-CSF, MCP-1 (CCL2), RANTES (CCL5), IFN-γ, IL-1β, IL-2, IL-4, IL-5, IL-6, IL-10, IL-12p70, IL-9, and IL13 on 18 hour incubation supernatants from three different experiments performed by Linco Diagnostic Services (St. Charles, Mo.).

[3] = mice treated with FL for 10 days (data not shown)
[4] = mice treated with FL for 10 days, sorted FC from PB

B1: FL: Recombinant human Flt-3 Ligand (FL, kindly provided by Amgen, Seattle, Wash.) (protein, UniProt P49771 27-235, looked up)
Fms-related tyrosine kinase 3 …: TQDCSFQHSPISSDFAVKIRELSDYLLQDYPVTVASNLQDEELCGGLWRLVLAQRWMERLKTVAGSKMQGLLERVNTEIHFVTKCAFQPPPSCLRFVQTNISRLLQETSEQLVALKPWITRQNFSRCLELQCQPDSSTLPPPWSPRPLEATAPTAPQPPLLLLLLLPVGLLLLAAAWCLHWQRTRRRTPRPGEQVPPVPSPQDLLLVEH
- expansion of FC in PB (FC population in PB; FL-treatment of mice): significantly expands
- FL-FC in the PB expressing CD14 (FC population in PB; [3]): none
- FL-FC in the PB expressing CD19 (FC population in PB; [3]): none
- CD11c^bright population (mature DC) in FL-FC (FC population in PB; [4]): 20%
- CD11c^dim population (p-preDC phenotype) in FL-FC (FC population in PB; [4]): 60% and 60-65%
- FL-FC in the PB expressing CD11c (FC population in PB; [4]): 85-90%
- FL-FC in the PB expressing NK1.1 (FC population in PB; [4]): 5-7%
- CD80 expression on FL-derived FC (CD8^+/TCR^− FC [1]; versus 11% of fresh FC): 47%
- CD86 expression on FL-derived FC (CD8^+/TCR^− FC [1]; versus 17% of fresh FC): 51%
- Class II expression on FL-derived FC (CD8^+/TCR^− FC [1]; versus 18% of fresh FC): 40%
- IFN-α production by FL-derived FC (CD8^+/TCR^− FC [2]): significant amounts of IFN-α
